Data taken from patent US20160137713A1.

Columns and labels:
[1] = target: soluble human FcRn (human) (UniProt P55899); assay: ELISA on coated shFcRn, scFv 100 ng/mL, pH 6.0
[2] = target: soluble human FcRn (human) (UniProt P55899); assay: ELISA on coated shFcRn, scFv 100 ng/mL, pH 7.4

Row | ELISA (OD450) [1] [OD450] | ELISA (OD450) [2] [OD450] | Binder
1 | 1.71 | 1.05 | A12-E01 (scFv, V domains shown, not shown: small tags and cut ends, linker not given) VH: EVQLVESGGGLVQPGRSLRLSCAASGFTFDEYGMHWVRQAPGKGLEWVSGVSWNSGSIAYADSVRGRFTISRDNAKNSLYLQMNSLRAEDTALYYCAKSRSMDVWGQGTTVTVSS VL: QSALTQPASVSGSPGQSITISCTGSSSDVGGYNYVSWYQQHPGKAPKLMIYDVTKRPSGVSNRFSGSKSGNTASLTISGLQAEDEADYYGSYSNNNFYVFGTGTKVTVLG
2 | 1.59 | 1.29 | A12-E04 (scFv, V domains shown, not shown: small tags and cut ends, linker not given) VH: EVQLVESGGGLVQPGRSLRLSCAASGFTFDEYGMHWVRQAPGKGLEWVSGVSWNSGSIAYADSVRGRFTISRDNAKNSLYLQMNSLRAEDTALYYCAKGRLFDVWGQGTTVTVSS VL: QSALTQPASVSGSPGQSITISCTGSSSDVGGYNYVSWYQQHPGKAPKLMIYDVTKRPSGVSNRFSGSKSGNTASLTISGLQAEDEADYYGSYSNSNFYVFGTGTKVTVLG
3 | 2.06 | 1.8 | A12-E05 (scFv, V domains shown, not shown: small tags and cut ends, scFv linker not given) VH: EVQLVESGGGLVQPGRSLRLSCAASGFTFDEYGMHWVRQAPGKGLEWVSGVSWNSGSIAYADSVRGRFTISRDNAKNSLYLQMNSLRAEDTALYYCAKGRILDVWGQGTTVTVSS VL: QSALTQPASVSGSPGQSITISCTGSSSDVGGYNYVSWYQQHPGKAPKLMIYDVTKRPSGVSNRFSGSKSGNTASLTISGLQAEDEADYYGSYNNSTFYVFGTGTKVTVLG
4 | 2.26 | 1.57 | A12-H04 (scFv, V domains shown, not shown: small tags and cut ends, linker not given) VH: EVQLVESGGGLVQPGRSLRLSCAASGFTFDEYGMHWVRQAPGKGLEWVSGVSWNSGSIAYADSVRGRFTISRDNAKNSLYLQMNSLRAEDTALYYCAKGRLLDVWGQGTTVTVSS VL: QSALTQPASVSGSPGQSITISCTGSSSDVGGYNYVSWYQQHPGKAPKLMIYDVTKRPSGVSNRFSGSKSGNTASLTISGLQAEDEADYYGAYSNTNFYVFGTGTKVTVLG
